Reference: patent US20170119790A1, “Agents, Uses and Methods” (CYTOGUIDE A/S, priority 2009, published 2017)

Legend:
[1] = molecular target: CD163 (Homo sapiens, UniProt Q86VB7); experiment: Surface plasmon resonance (Biacore) analysis of mAb binding to immobilized CD163
Method: (§1) SPR analysis of the binding of mAbs to CD163 was carried out on a Biacore 2000 instrument (Biacore, Uppsala, Sweden). The Biacore sensor chips (type CM5) were activated with a 1:1 mixture of 0.2 M N-ethyl-N′-(3-dimethylaminopropyl) carbodiimide and 0.05 M N-hydroxysuccimide in water. Purified recombinant CD163 were immobilized in 10 mM sodium acetate, pH 4.0, and the remaining binding sites were blocked with 1 M ethanolamine, pH 8.5. The SPR signal generated from immobilized recombinant CD163 proteins corresponded to 40-70 fmol of protein/mm^2. Sensorgrams were generated using mAb concentrations ranging from 5-100 nM. The flow cells were regenerated with 1.6 M glycine-HCl, pH 3. The running buffer used for the experiment was either CaHBS 10 mM Hepes, 150 mM NaCl, 3.0 mM CaCl2, 1.0 mM EGTA, and 0.005% Tween 20, […], and 0.005% Tween 20, pH 7.4, mAb samples were dissolved in the same buffer as the running buffer used. All binding data were analyzed using the Biamolecular Interaction Analysis evaluation program version 3.1.
as §1, with “7.4, KN2/NRY and Mac-158” for “7.4, mAb”, “buffer used at a concentration of 5 μg/ml.” for “buffer used.”

[2] = molecular target: T1, CD163 receptor on surface of human macrophages (Homo sapiens, UniProt Q86VB7); experiment: Cellular binding and uptake of fluorescently labeled CD163 antibodies in monocyte-derived macrophages; assay type: cell-based
T1 construct: Freshly drawn peripheral whole blood samples or PBMC; endogenous in cells; host or cells: human peripheral blood monocytes, blood dendritic cells, monocyte-derived macrophages (healthy donors, buffy coats)
T1 sequence (Q86VB7 42-1156): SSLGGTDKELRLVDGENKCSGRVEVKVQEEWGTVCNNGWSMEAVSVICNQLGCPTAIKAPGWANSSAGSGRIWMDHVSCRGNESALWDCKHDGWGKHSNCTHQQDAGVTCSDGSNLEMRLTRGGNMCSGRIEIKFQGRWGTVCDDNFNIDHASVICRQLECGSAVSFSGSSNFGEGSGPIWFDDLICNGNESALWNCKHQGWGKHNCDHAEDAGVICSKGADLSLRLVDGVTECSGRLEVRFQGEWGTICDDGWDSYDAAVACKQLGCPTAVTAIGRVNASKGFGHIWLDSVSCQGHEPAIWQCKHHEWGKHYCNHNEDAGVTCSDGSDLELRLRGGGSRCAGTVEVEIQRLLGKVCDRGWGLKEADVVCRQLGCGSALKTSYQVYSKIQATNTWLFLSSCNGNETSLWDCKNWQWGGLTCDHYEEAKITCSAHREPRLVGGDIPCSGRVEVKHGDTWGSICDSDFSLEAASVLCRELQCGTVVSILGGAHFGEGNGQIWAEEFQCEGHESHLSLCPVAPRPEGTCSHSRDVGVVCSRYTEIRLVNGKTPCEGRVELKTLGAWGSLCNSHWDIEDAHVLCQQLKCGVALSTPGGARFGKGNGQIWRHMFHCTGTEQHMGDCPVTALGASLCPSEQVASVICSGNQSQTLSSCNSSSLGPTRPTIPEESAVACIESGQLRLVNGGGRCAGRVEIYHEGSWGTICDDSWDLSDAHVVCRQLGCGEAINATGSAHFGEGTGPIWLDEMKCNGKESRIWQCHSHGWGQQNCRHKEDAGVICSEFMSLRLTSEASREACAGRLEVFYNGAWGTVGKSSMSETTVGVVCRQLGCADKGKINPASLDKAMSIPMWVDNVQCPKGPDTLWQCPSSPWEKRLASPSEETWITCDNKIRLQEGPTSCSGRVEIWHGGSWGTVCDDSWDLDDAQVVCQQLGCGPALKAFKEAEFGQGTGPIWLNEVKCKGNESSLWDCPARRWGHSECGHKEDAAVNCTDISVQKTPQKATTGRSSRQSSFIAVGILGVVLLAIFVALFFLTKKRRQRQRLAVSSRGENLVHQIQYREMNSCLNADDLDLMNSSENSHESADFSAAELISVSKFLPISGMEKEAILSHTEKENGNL
Method: Monocytes were isolated from PBMC by negative selection using magnetic beads from Dynal (Dynabeads® MyPure™ Monocyte Kit 2; Invitrogen A/S, Taastrup, Denmark) according to instructions provided by the manufacturer. Monocyte preparations were more than 95% (CD14^+) pure determined by flow cytometry. The isolated cells were washed twice with phosphate-buffered saline. Monocyte-derived macrophages (MDMs) were prepared by cell culture of monocytes (approximately 1×10^7 cells) for 4 days in 5% CO2 and 37° C. in RPMI 1640 media (RPMI 1640+25 mM HEPES+I-glutamine) (Invitrogen Corporation, Carlsbad, Calif., USA) with 20% FCS containing 100 ng/ml of M-CSF. MDMs were then detached from the flask by incubation with cell dissociation buffer (Invitrogen A/S, Taastrup, Denmark) for 30 minutes at 4 °C, then flushed, and scraped. The cells were then cultured for 24 hours in RPMI 1640 media (RPMI 1640+25 mM HEPES+I-glutamine) (Invitrogen Corporation, Carlsbad, Calif., USA) supplemented with 20% FCS containing 100 ng/ml of M-CSF at 37° C. in 95% air and 5% CO2 in Lab-Tek™ Chamber Slides (Thermo Fisher Scientific, Roskilde, Denmark). 200 nM dexamethasone (Merck KGaA, Darmstadt, Germany) was added during culture to increase CD163 expression. Stably transfected Chinese hamster ovary (CHO) cells expressing the full-length human CD163, as described above, were cultured in serum-free CHO medium (HyQ-CCM, HyClone, Logan, Utah) containing 300 μg/ml Hygromycin B, as previously described (2).
MDMs or CHO cells were washed with 4° C. cold D-PBS, pH 7.4, containing 1% BSA in Lab-Tek™ Chamber Slides (Thermo Fisher Scientific, Roskilde, Denmark). The cells were then incubated with 10 μg/ml different clones of anti-CD163 for one hour at 4° C. and then washed three times with D-PBS, pH 7.4, with 1% BSA. […] Fluorescence was visualized using a Zeiss Axiovert 200M microscope (Carl Zeiss GmbH, Jena, Germany) with an ×100 oil-immersion objective. […] Alternatively, immunostained cells were analyzed by confocal immunofluorescence microscopy using a Zeiss LSM-510 confocal microscope (Carl Zeiss GmbH, Jena, Germany). […]

Sequence of CD163 (Q86VB7 42-1156): as above

B1: MAC2-158: anti-human CD163 murine mAb, binds SRCR domain 1, IQ Products; VH SEQ ID NO: 1, VL SEQ ID NO: 2 (antibody, V domains shown)
VH: DVQLQESGPGLVKPSQSLSLTCTVTGYSITSDYAWNWIRQFPGNKLEWMGYITYSGITNYNPSLKSQISITRDTSKNQFFLQLNSVTTEDTATYYCVSGTYYFDYWGQGTTLTVSS
VL: SVVMTQTPKSLLISIGDRVTITCKASQSVSSDVAWFQQKPGQSPKPLIYYASNRYTGVPDRFTGSGYGTDFTFTISSVQAEDLAVYFCGQDYTSPRTFGGGTKLEIKRA
modifications: Mac2-158 VH; Mac2-158 VL
- affinity for human CD163 immobilized on a Biacore chip ([1]; KN2/NRY compared with Mac2-158, 5 μg/ml, FIG. 19): Virtually similar affinities
- strength of binding to CD163 in Biacore studies ([1]; comparison between mAbs): high affinity
- affinities for CD163 ([1]; in both 2 mM free Ca2+ and 10 mM EDTA): nanomolar or sub-nanomolar range
- calcium dependence of binding activity in SPR-analysis ([1]; with/without calcium): binding activity regardless extracellular levels of calcium
- binding and uptake ([2]; 0 or 30 minutes, FIG. 6): best binding and uptake
- intensity of intracellular staining ([2]; after incubation for 30 min): most prominent
- cell surface staining ([2]; immunofluorescence, 0 min, macrophages stimulated with 200 nM dexamethasone): pronounced cell surface staining
